The text below walks through data of article PMC12175530.

Data set [1] deals with T1, EseE-His6 (Edwardsiella piscicida) (UniProt A0AAU8P1U3).
T1 sequence: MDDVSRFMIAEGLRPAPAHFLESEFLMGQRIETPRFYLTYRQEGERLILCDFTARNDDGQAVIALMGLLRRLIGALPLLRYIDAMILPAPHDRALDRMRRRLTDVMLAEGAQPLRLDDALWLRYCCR
The experiment in a line: EMSA. Conditions: 20 mM Tris-HCl pH 7.5, 50 mM MgCl2, 5% glycerol, 20 uL, 2 h at 25 C.

For data set [2], the target named is T2, EsrB-His6 (Edwardsiella piscicida) (UniProt A0AAU8P338).
T2 sequence: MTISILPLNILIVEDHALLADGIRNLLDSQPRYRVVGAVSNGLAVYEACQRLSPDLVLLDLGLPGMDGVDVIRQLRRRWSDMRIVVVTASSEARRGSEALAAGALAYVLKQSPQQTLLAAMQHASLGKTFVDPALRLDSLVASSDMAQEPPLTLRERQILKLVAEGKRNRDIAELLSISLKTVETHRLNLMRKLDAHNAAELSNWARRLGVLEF
The experiment in a line: EMSA. The note with it: 20 mM Tris-HCl pH 7.5, 50 mM MgCl2, 5% glycerol, 20 uL, 2 h at 25 C. (In general: A gel shift assay detects complexes by their altered migration in electrophoresis.)

Turning to “GCCCGAACACCCGAGAAAAACCAACGTAACTTCAGGTAATTACCCGATATCTTTCGCGCGGGTTCAGCACCCAGAATGGGCCGGGGAAAAAGAGTTCGTCTCCCGATAACCAAACAGCAAACGTTATGCAGCTTCTCGAAAGTTCGCCCGCTAACGGCGTTCTAGCATCACCTCATCGGTAGTCAATAGGAGGTTTCACT (double strand) [escC -200 to -1]”, the binding entry in data set [1] and in data set [2] was “binds” each time.
